Test results taken from patent publication US20240293316A1, “ENZYME-RESPONSIVE POLYMER PEPTIDE AMPHIPHILES FOR TARGETED DRUG DELIVERY TO TREAT LOCAL AND SYSTEMIC INFLAMMATION” (Ramot at Tel-Aviv University Ltd., priority 2021, published 2024).
Square brackets hold non-standard residues; d marks the D form. Ends that are not written are not given here. * marks the point of attachment. NorAHA = (N-hexanoic acid)-5-norbornene-exo-2,3-dicarboximide, O=C1[C@@H]2[C@H](C(=O)N1CCCCCC(=O)*)[C@H]1C=C[C@@H]2C1

What was measured:
[1] = Properties of the designed random peptide (water solubility, net charge); type: physicochemical
Method: A new random peptide sequence was designed by replacing the MMP recognizable amino acid sequence PLGLAG (SEQ ID NO: 16) into GSGSGS (SEQ ID NO: 20).
Following the preparation of peptide functionalized norbornene monomers, an MMP-9 cleavage assay was performed setup, as described in the Materials and Methods section hereinabove.

[2] = tested on: diabetic rats following collagen membrane implantation; test: Diabetic rats with implanted collagen membrane, fluorescence imaging of DEX-containing nanoparticles; type: in vivo, Female Sprague Dawley rats; conditions: for order of in-vivo fluorescence intensity: 7- and 14-days post injection
Method: (§1) “Diabetic induction” model [Zoabi et al. 2020, supra]: Type 1-like diabetes was induced through a single intraperitoneal injection of streptozotocin, and the induction of hyperglycemia is confirmed by a blood glucose level that is higher than 270 mg/dL at 7 days post injection;
(§2) “Collagen membrane implantation” under scalp of diabetic rats, wherein a para-sagital excisional wound, 10 mm in length, was created in the center of the skin of the calvaria, the periosteum was separated from the skull bone, and a collagen membrane was implanted beneath [Eliezer M, Nemcovsky C, Romanos G, Kozlovsky A, Tal H, Kolerman R, Weinreb M, Moses O. Opposing effects of diabetes and tetracycline on the degradation of collagen membranes in rats. J Periodontol. 2013 April; 84(4):529-34; Tal H, Weinreb M, Shely A, Nemcovsky C E, Moses O. Tetracycline impregnation affects degradation of porcine collagen matrix in healthy and diabetic rats. Clin Oral Investig. 2016 July; 20(6):1237-42; Moses O, Eliezer M, Nemcovsky C, Tal H, Weinreb M. Accelerated degradation of collagen membranes in diabetic rats is associated with increased infiltration of macrophages and blood vessels. Clin Oral Investig. 2016 September; 20(7):1589-96; Eliezer M, Sculean A, Miron R J, Nemcovsky C, Weinberg E, Weinreb M, Zoabi H, Bosshardt D D, Fujioka-Kobayashi M, Moses O. Hyaluronic acid slows down collagen membrane degradation in uncontrolled diabetic rats. J Periodontal Res. 2019 December; 54(6):644-652; and Zoabi H, Nemcovsky C E, Bender O, Moses O, Weinreb M. Accelerated degradation of collagen membranes in type 1 diabetic rats is associated with increased expression and production of several inflammatory molecules. J Periodontol. 2020 October; 91(10):1348-13561.
Type 1-like diabetes was induced as described in the Materials and Methods section, and the induction of hyperglycemia was confirmed by a blood glucose level higher than 270 mg/dL 7 days post injection (see, FIGS. 13A and 13B).
(§3) At day 8, the rats were randomly divided into five groups to receive one single dosage of: i) NPL, ii) NPD, iii) NPR, iv) free DEX, or v) no injection, through a subcutaneous injection posterior to the ear (n=12 for each treatment group and n=3 for the no injection control group). For each treated group, 260 μg of DEX (either free-form or conjugated to the polymer) was used to provide a […] dosage similar to the literature value. Thus, the PPA NPs injection contained 250 μM polymer with 50% (125 μM) Cy 5.5 labeling, for each 200 μL injection.

[3] = biological target: thermolysin (Bacillus thermoproteolyticus, UniProt P00800); conditions: 1 μM thermolysin:100 μM polymer, 24 hours incubation at 37° C.
Sequence of thermolysin (P00800 233-548, species assumed): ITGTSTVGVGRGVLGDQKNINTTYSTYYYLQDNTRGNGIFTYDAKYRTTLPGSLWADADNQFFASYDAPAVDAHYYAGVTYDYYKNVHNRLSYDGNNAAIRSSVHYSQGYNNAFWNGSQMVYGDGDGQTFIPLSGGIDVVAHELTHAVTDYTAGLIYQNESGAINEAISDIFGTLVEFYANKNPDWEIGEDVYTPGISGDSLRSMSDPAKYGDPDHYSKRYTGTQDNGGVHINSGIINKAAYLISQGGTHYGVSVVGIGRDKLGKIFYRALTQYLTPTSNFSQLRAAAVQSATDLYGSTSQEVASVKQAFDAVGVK
Method: Transmission electron microscopy (TEM): Nanoparticles were characterized using a Hitachi HD-2300 STEM. Grids were prepared using a 1% uranyl acetate solution.
The nanoparticle cleavage experiment was performed similarly as described in Materials and Methods section, using a ratio of 1 μM thermolysin:100 μM polymer for 24 hours incubation at 37° C.

[4] = tested on: diabetic rats following collagen membrane implantation; test: Diabetic rats with implanted collagen membrane, histology of residual collagen membrane (HRP-Avidin); type: in vivo, Female Sprague Dawley rats
Method: as §1, §2, §3
Two weeks following injection, the rats were sacrificed with carbon dioxide overdose, and the skull together with the over lining periosteum and the membrane were harvested.
The harvested skull together with the over lining periosteum and the membrane were subjected to the following processing: tissues from 10 rats per group were fixed with paraformaldehyde, and processed for decalcified tissue histology, embedded in paraffin. […]

[5] = biological target: MMP-9 (Homo sapiens, UniProt P14780); test: MMP-9 cleavage assay of norbornene peptide monomers (HPLC); type: biochemical; conditions: 0.5 μM MMP-9: 500 μM NorMMP, 24 hours of incubation at 37° C.
Sequence of MMP-9 (P14780 94-707): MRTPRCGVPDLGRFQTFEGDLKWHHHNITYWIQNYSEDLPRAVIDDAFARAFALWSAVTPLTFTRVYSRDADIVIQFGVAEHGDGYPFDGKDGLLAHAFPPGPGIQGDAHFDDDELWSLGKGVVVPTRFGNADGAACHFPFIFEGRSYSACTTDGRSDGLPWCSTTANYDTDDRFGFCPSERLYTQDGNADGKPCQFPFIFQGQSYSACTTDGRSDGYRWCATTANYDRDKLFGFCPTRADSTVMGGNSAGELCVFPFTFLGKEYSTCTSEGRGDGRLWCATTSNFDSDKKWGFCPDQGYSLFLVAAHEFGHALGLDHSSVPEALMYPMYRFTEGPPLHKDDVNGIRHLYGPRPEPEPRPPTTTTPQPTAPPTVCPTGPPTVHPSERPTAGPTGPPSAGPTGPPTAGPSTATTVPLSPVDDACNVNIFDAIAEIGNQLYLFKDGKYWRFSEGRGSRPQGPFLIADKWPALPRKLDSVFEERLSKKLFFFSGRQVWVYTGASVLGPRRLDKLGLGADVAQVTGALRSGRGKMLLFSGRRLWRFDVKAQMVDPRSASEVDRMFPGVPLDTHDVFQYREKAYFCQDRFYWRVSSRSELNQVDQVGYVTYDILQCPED
Method: Stock solution of NorMMP peptide (510 μM) was prepared in DPBS buffer. To an Eppendorf tube, 1.5 μL MMP-9 stock (38.46 μM) and […] of NorMMP stock was added, giving a final concentration of 0.5 μM MMP-9: 500 μM NorMMP. The solution was incubated at 37° C. for 24 hours to promote peptide cleavage. To prepare the HPLC sample, 50 μL of the reaction mixture was added to 150 μL of DPBS buffer. 40 μL of resulting solution was injected into HPLC for analysis. For NorMMPL, NorMMPD and the cleavable sequence ([…]), a gradient of 20-60% Buffer B over 30 minutes was used. For the NorMMPR, a gradient of 20-40% Buffer B in 30 minutes was used.
Three test groups, including the norbornenes functionalized with random peptide (NorMMPR), D- and L-MMP peptide (NorMMPD and NorMMPL), and one control group with the cleaved peptide sequence […] were setup.

[6] = single dose, 260 μg of DEX, two weeks following injection

Substance	order of in-vivo fluorescence intensity [2]	nanoparticle morphology upon thermolysin treatment (TEM) [3]	cleavage by MMP-9 (HPLC traces) [5]	also measured
GGSGSGSGWGERDGS-NH2 (C-terminus assumed) [random peptide]				water solubility [1]: good water solubility
MMP peptide: peptide comprising PLGLAG sequence with all L-amino acids (SEQ ID NO: 1), MMP-cleavable (GPLGLAGGERDG-NH2)				net charge ([1]; pH=7): −1
NPD: micellar nanoparticles formed of DEX-containing D-MMP-containing PPA (PPAD) (NorAHA-G[dP][dL]G[dL][dA]GGERDG-NH2; not fully specified; also: grafted via NorAHA into ROMP polynorbornene block copolymer, micellar nanoparticle)	NPL>NPD>NPR	maintained their nanoparticle morphology		
NPL: micellar nanoparticles formed of DEX-containing L-MMP-containing PPA (PPAL) (NorAHA-GPLGLAGGERDG-NH2; not fully specified; also: micellar nanoparticle of NorDEX20-b-NorMMP5 polynorbornene block copolymer with DEX ester)	NPL>NPD>NPR	cleavage induced aggregation		collagen membrane area, higher than the free dexamethasone group [4, 6]: about 20%; collagen membrane area, higher than the no treatment group [4, 6]: about 40%; remaining collagen membrane area compared to free-form dexamethasone-treated group [4, 6]: significantly larger; voids in the residual collagen membranes compared to free-form dexamethasone and no injection groups ([4]; staining and histology analysis): significantly less voids; in-vivo fluorescence intensity compared to NPD and NPR controls ([2]; 7- and 14-days post injection (day 14 and day 21)): significantly higher
NPR: micellar nanoparticles formed of DEX-containing random-peptide PPA (PPAR) (GGSGSGSGWGERDGS)	NPL>NPD>NPR	maintained their nanoparticle morphology		
NorMMPD: norbornene monomer with D-MMP peptide (SEQ ID NO: 2), D-amino acids in the PLGLAG portion (NorAHA-G[dP][dL]G[dL][dA]GGERDG-NH2; not fully specified)			remained intact	
NorMMPL: norbornene monomer functionalized with L-MMP peptide (SEQ ID NO: 1), MMP-cleavable (NorAHA-GPLGLAGGERDG-NH2; SMILES CC(C)C[C@H](NC(=O)CNC(=O)[C@H](CC(C)C)NC(=O)[C@@H]1CCCN1C(=O)CNC(=O)CCCCCN1C(=O)[C@@H]2[C@H](C1=O)[C@H]1C=C[C@@H]2C1)C(=O)N[C@@H](C)C(=O)NCC(=O)NCC(=O)N[C@@H](CCC(=O)O)C(=O)N[C@@H](CCCNC(=N)N)C(=O)N[C@@H](CC(=O)O)C(=O)NCC(N)=O)			completely cleaved	
NorMMPR: norbornene monomer with R-MMP random peptide (SEQ ID NO: 17) (NorAHA-GGSGSGSGWGERDGS-NH2; not fully specified)			remained intact	
